Reference: publication PMC8376870 (2021)

Target: GST-G511-V540 (TRPV6 S5 fragment) (Homo sapiens (Human), UniProt Q9H1D0)
Experiment: in vitro pull-down (GST/His-MBP) with western blot

Chain of GST-G511-V540 (TRPV6 S5 fragment) (Q9H1D0 511-540): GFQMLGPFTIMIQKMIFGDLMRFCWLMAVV

- binding result: binds
B1: His-MBP-A603-L632 (TRPV6 S6 fragment) (protein)
chain: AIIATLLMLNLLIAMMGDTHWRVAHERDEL
